Data on eight molecules can be found in US11278600B2, “Human alpha-galactosidase variants” (Codexis, Inc., priority 2014, dated 2022).

Format in all cases: biochemical
A short description of data set [1]: HTP-analysis of supernatants pretreated with acid (MUGal hydrolysis). The note with it: challenge at pH 4.2; activity of the variant/activity of WT GLA (SEQ ID NO: 5); yeast supernatant. The gist of the method:
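Supernatants from INVSc1 yeast secreting GLA variants were challenged at 37° C. for 1-3 h in McIlvaine buffer at pH 3.3-4.3. Residual activity was then measured on 4 mM MUGal substrate stock at pH 4.8 with citrate buffer pH 4.3, over 30-180 min at 37° C. Reactions were quenched with sodium carbonate and read by fluorescence (Ex 355/Em 448 nm).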

A short description of data set [2]: HTP-analysis of supernatants pretreated with base (MUGal hydrolysis). The note with it: challenge at pH 7.1; activity of the variant/activity of WT GLA (SEQ ID NO: 5); yeast supernatant. In outline: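 Fluorescence of released 4-MU (Ex 355 nm, Em 448 nm) after carbonate quench reports MUGal hydrolysis by GLA variants secreted from INVSc1 yeast. Before the acidic (pH 4.3-4.8) 30-180 min reaction at 37° C, supernatants had been pre-incubated at pH 7.0-9.7 for 1-18 h at 37° C.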

Data set [3] in a line: HTP-analysis of yeast culture supernatants, no challenge (MUGal hydrolysis). The note with it: activity of the variant/activity of WT GLA (SEQ ID NO: 5), yeast supernatant. The gist of the method: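 Activity read as 4-methylumbelliferyl α-D-galactopyranoside hydrolysis: fluorescence (355/448 nm) after sodium carbonate stop, following 30-180 min at 37° C with 2 mM MUGal stock at pH 4.6–4.8. Enzyme source is unchallenged culture supernatant of INVSc1 yeast expressing GLA variants, grown 66-84 h at 30° C.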

B1: 71 (protein)
chain: LDNGLARTPTMGWLHWERFMCNLDCQEEPDSCISEKLFMEMAELMVSEGWKDAGYEYLCIDDCWMAPQRDSEGRLQADPQRFPHGIRQLANYVHSKGLKLGIYADVGNKTCAGFPGSFGYYDTDAQTFADWGVDLLKFDGCYCDSLENLADGYKHMSLALNRTGRSIVYSCEWPLYMWPFQKPNYTEIRQYCNHWRNFADIDDSWKSIKSILDWTSFNQERIVDVAGPGGWNDPDMLVIGNFGLSWNQQVTQMALWAIMAAPLFMSNDLRHISPQAKALLQDKDVIAINQDPLGKQGYQLRQGDNFEVWERPLSGLAWAVAMINRQEIGGPRSYTIAVASLGKGVACNPACFITQLLPVKRKLGFYEWNSRLRSHINPTGTVLLQLENTMQMSKDLLL
modifications: Synthetic Polypeptide sequence of Variant No. 71 of mature Human GLA
For the molecule B1, the “Relative Activity of GLA Variants After Challenge at pH 4.2” value (from here on “Relative Activity … at pH 4.2”) in data set [1] is given as “+ (+ = 0.5 to 1.5 relative activity over WT GLA (SEQ ID NO: 5))”. Also, the “Relative Activity of GLA Variants After Challenge at pH 7.1” value (shortened to “Relative Activity … at pH 7.1”) in data set [2] is on record as “++ (++ = >1.5 to 2.5 relative activity over WT GLA (SEQ ID NO: 5))”. In addition, the “Relative Activity of GLA Variants After No Challenge (NC)” value in data set [3] is reported as “++ (++ = >1.5 to 2.5 relative activity over WT GLA (SEQ ID NO: 5))”.

B2: 73 (protein)
chain: LDNGLARTPTMGWLHWERFMCNLDCQEEPDSCISEKLFMEMAELMVSEGWKDAGYEYLCIDDCWMAPQRDSEGRLQADPQRFPHGIRQLANYVHSKGLKLGIYADVGNKTCAGFPGSFGYYDIDAQTFADWGVDLLKFDGCYCDSLENLADGYKHMSLALNRTGRSIVYSCEWPLYMWPFQKPNYTEIRQYCNHWRNFADIDDSWASIKSILDWTSFNQERIVDVAGPGGWNDPDMLVIGNFGLSWNQQVTQMALWAIMAAPLFMSNDLRHISPQAKALLQDKDVIAINQDPLGKQGYQLRQGDNFEVWERPLSGLAWAVAMINRQEIGGPRSYTIAVASLGKGVACNPACFITQLLPVKRKLGFYEWTSRLRSHINPTGTVLLQLENTMQMSLKDLL
modifications: Synthetic Polypeptide sequence of Variant No. 73
Turning to B2, the “Relative Activity … at pH 4.2” value in data set [1] is listed as “+++ (+++ = >2.5 relative activity over WT GLA (SEQ ID NO: 5))”. The “Relative Activity … at pH 7.1” value in data set [2] was “++ (++ = >1.5 to 2.5 relative activity over WT GLA (SEQ ID NO: 5))”. Besides, the “Relative Activity of GLA Variants After No Challenge (NC)” value in data set [3] is given as “+ (+ = 0.5 to 1.5 relative activity over WT GLA (SEQ ID NO: 5))”.

B3: 76 (protein)
chain: LDNGLARTPTMGWLHWERFMCNLDCQEEPDSCISEKLFMEMAELMVSEGWKDAGYEYLCIDDCWMAPQRDSEGRLQADPQRFPHGIRQLANYVHSKGLKLGIYADVGNKTCAGFPGSFGYYDIDAQTFADWGVDLLKFDGCYCDSLENLADGYKHMSLALNRTGRSIVYSCEWPLYMWPFQKPNYTEIRQYCNHWRNFADIDDSWRSIKSILDWTSFNQERIVDVAGPGGWNDPDMLVIGNFGLSWNQQVTQMALWAIMAAPLFMSNDLRHISPQAKALLQDKDVIAINQDPLGKQGYQLRQGDNFEVWERPLSGLAWAVAMINRQEIGGPRSYTIAVASLGKGVACNPACFITQLLPVKRKLGFYEWTSRLRSHINPTGTVLLQLENTMQMSLKDLL
modifications: Synthetic Polypeptide sequence of Variant No. 76
As to B3, in data set [1], the “Relative Activity … at pH 4.2” value is recorded as “+++ (+++ = >2.5 relative activity over WT GLA (SEQ ID NO: 5))”. The “Relative Activity … at pH 7.1” value in data set [2] is recorded as “++ (++ = >1.5 to 2.5 relative activity over WT GLA (SEQ ID NO: 5))”. Besides, in data set [3], the “Relative Activity of GLA Variants After No Challenge (NC)” value was “+ (+ = 0.5 to 1.5 relative activity over WT GLA (SEQ ID NO: 5))”.

B4: 77 (protein)
chain: LDNGLARTPTMGWLHWERFMCNLDCQEEPDSCISEKLFMEMAELMVSEGWKDAGYEYLCIDDCWMAPQRDSEGRLQADPQRFPHGIRQLANYVHSKGLKLGIYADVGNKTCAGFPGSFGYYDIDAQTFADWGVDLLKFDGCYCDSLENLADGYKHMSLALNRTGRSIVYSCEWPLYMWPFQKPNYTEIRQYCNHWRNFADIDDSWTSIKSILDWTSFNQERIVDVAGPGGWNDPDMLVIGNFGLSWNQQVTQMALWAIMAAPLFMSNDLRHISPQAKALLQDKDVIAINQDPLGKQGYQLRQGDNFEVWERPLSGLAWAVAMINRQEIGGPRSYTIAVASLGKGVACNPACFITQLLPSKRKLGFYEWTSRLRSHINPTGTVLLQLENTMQMSKDLLL
modifications: Synthetic Polypeptide sequence of Variant No. 77 of mature Human GLA
Regarding B4, the “Relative Activity … at pH 4.2” value in data set [1] is reported as “++ (++ = >1.5 to 2.5 relative activity over WT GLA (SEQ ID NO: 5))”. Also, in data set [2], the “Relative Activity … at pH 7.1” value was “+ (+ = 0.5 to 1.5 relative activity over WT GLA (SEQ ID NO: 5))”. Besides, the “Relative Activity of GLA Variants After No Challenge (NC)” value in data set [3] is “+ (+ = 0.5 to 1.5 relative activity over WT GLA (SEQ ID NO: 5))”.

B5: 74 (protein)
chain: LDNGLARTPTMGWLHWERFMCNLDCQEEPDSCISEKLFMEMAELMVSEGWKDAGYEYLCIDDCWMAPQRDSEGRLQADPQRFPHGIRQLANYVHSKGLKLGIYADVGNKTCAGFPGSFGYYDIDAQTFADWGVDLLKFDGCYCDSLENLADGYKHMSLALNRTGRSIVYSCEWPLYMWPFQKPNYTEIRQYCNHWRNFADIDDSWMSIKSILDWTSFNQERIVDVAGPGGWNDPDMLVIGNFGLSWNQQVTQMALWAIMAAPLFMSNDLRHISPQAKALLQDKDVIAINQDPLGKQGYQLRQGDNFEVWERPLSGLAWAVAMINRQEIGGPRSYTIAVASLGKGVACNPACFITQLLPVKRKLGFYEWTSRLRSHINPTGTVLLQLENTMQMSKDLLL
modifications: Synthetic Polypeptide sequence of Variant No. 74 of mature Human GLA
In the case of B5, in data set [1], the “Relative Activity … at pH 4.2” value is reported as “+++ (+++ = >2.5 relative activity over WT GLA (SEQ ID NO: 5))”. For the same molecule, the “Relative Activity … at pH 7.1” value in data set [2] was “++ (++ = >1.5 to 2.5 relative activity over WT GLA (SEQ ID NO: 5))”. The “Relative Activity of GLA Variants After No Challenge (NC)” value in data set [3] is “+ (+ = 0.5 to 1.5 relative activity over WT GLA (SEQ ID NO: 5))”.

B6: 75 (protein)
chain: LDNGLARTPTMGWLHWERFMCNLDCQEEPDSCISEKLFMEMAELMVSEGWKDAGYEYLCIDDCWMAPQRDSEGRLQADPQRFPHGIRQLANYVHSKGLKLGIYADVGNKTCAGFPGSFGYYDIDAQTFADWGVDLLKFDGCYCDSLENLADGYKHMSLALNRTGRSIVYSCEWPLYMWPFQKPNYTEIRQYCNHWRNFADIDDSWQSIKSILDWTSFNQERIVDVAGPGGWNDPDMLVIGNFGLSWNQQVTQMALWAIMAAPLFMSNDLRHISPQAKALLQDKDVIAINQDPLGKQGYQLRQGDNFEVWERPLSGLAWAVAMINRQEIGGPRSYTIAVASLGKGVACNPACFITQLLPVKRKLGFYEWTSRLRSHINPTGTVLLQLENTMQMSKDLLL
modifications: Synthetic Polypeptide sequence of Variant No. 75 of mature Human GLA
With B6, the “Relative Activity … at pH 4.2” value in data set [1] was “+++ (+++ = >2.5 relative activity over WT GLA (SEQ ID NO: 5))”. Moreover, the “Relative Activity … at pH 7.1” value in data set [2] is reported as “++ (++ = >1.5 to 2.5 relative activity over WT GLA (SEQ ID NO: 5))”. For the same molecule, in data set [3], the “Relative Activity of GLA Variants After No Challenge (NC)” value is reported as “+ (+ = 0.5 to 1.5 relative activity over WT GLA (SEQ ID NO: 5))”.

B7: 78 (protein)
chain: LDNGLARTPTMGWLHWERFMCNLDCQEEPDSCISEKLFMEMAELMVSEGWKDAGYEYLCIDDCWMAPQRDSEGRLQADPQRFPHGIRQLANYVHSKGLKLGIYADVGNKTCAGFPGSFGYYDIDAQTFADWGVDLLKFDGCYCDSLENLADGYKHMSLALNRTGRSIVYSCEWPLYMWPFQKPNYTEIRQYCNHWRNFADIDDSWKSIKSILDWTSFNQERIVDVAGPGGWNDPDMLVIGNFGLSWNQQVTQMALWAIMAAPLFMSNDLRHISPQAKALLQDKDVIAINQDPLGKQGYQLRQGDNFEVWERPLSGLAWAVAMINRQEIGGPRSYTIAVASLGDGVACNPACFITQLLPVKRKLGFYEWTSRLRSHINPTGTVLLQLENTMQMSKDLLL
modifications: Synthetic Polypeptide sequence of Variant No. 78 of mature Human GLA
Consider B7, for which the “Relative Activity … at pH 4.2” value in data set [1] was “++ (++ = >1.5 to 2.5 relative activity over WT GLA (SEQ ID NO: 5))”. In addition, the “Relative Activity … at pH 7.1” value in data set [2] is reported as “++ (++ = >1.5 to 2.5 relative activity over WT GLA (SEQ ID NO: 5))”. The “Relative Activity of GLA Variants After No Challenge (NC)” value in data set [3] is listed as “++ (++ = >1.5 to 2.5 relative activity over WT GLA (SEQ ID NO: 5))”.

B8: 72 (protein)
chain: LDNGLARTPTMGWLHWERFMCNLDCQEEPDSCISEKLFMEMAELMVSEGWKDAGYEYLCIDDCWMAPQRDSEGRLQADPQRFPHGIRQLANYVHSKGLKLGIYADVGNKTCAGFPGSFGYYDIDAQTFADWGVDLLKFDGCYCDSLENLADGYKHMSLALNRTGRSVVYSCEWPLYMWPFQKPNYTEIRQYCNHWRNFADIDDSWKSIKSILDWTSFNQERIVDVAGPGGWNDPDMLVIGNFGLSWNQQVTQMALWAIMAAPLFMSNDLRHISPQAKALLQDKDVIAINQDPLGKQGYQLRQGDNFEVWERPLSGLAWAVAMINRQEIGGPRSYTIAVASLGKGVACNPACFITQLLPVKRKLGFYEWTSRLRSHINPTGTVLLQLENTMQMSKDLLL
modifications: Synthetic Polypeptide sequence of Variant No. 72 of mature Human GLA
Regarding B8, the “Relative Activity … at pH 4.2” value in data set [1] is “+ (+ = 0.5 to 1.5 relative activity over WT GLA (SEQ ID NO: 5))”. In data set [2], the “Relative Activity … at pH 7.1” value is recorded as “+ (+ = 0.5 to 1.5 relative activity over WT GLA (SEQ ID NO: 5))”. In data set [3], the “Relative Activity of GLA Variants After No Challenge (NC)” value was “+ (+ = 0.5 to 1.5 relative activity over WT GLA (SEQ ID NO: 5))”.
